Values belong to the binder of their own block, whether it stands above or below them.
Legend:
4H349-bH = target: T1, 4H349-bH; assay: two-hybrid library CCNG1;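 further: natural log of median RNA to DNA barcode read ratio; higher means stronger binding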
T1 chain: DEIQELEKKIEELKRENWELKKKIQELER

4H3041-bH = target: T2, 4H3041-bH; assay: two-hybrid library CCNG1;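 further: natural log of median RNA to DNA barcode read ratio; higher means stronger binding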
T2 chain: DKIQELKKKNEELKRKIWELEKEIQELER

4H2931-bH = target: T3, 4H2931-bH; assay: two-hybrid library CCNG1;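 further: natural log of median RNA to DNA barcode read ratio; higher means stronger binding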
T3 chain: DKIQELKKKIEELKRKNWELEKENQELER

4H56-bH = target: T4, 4H56-bH; assay: two-hybrid library CCNG1;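 further: natural log of median RNA to DNA barcode read ratio; higher means stronger binding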
T4 chain: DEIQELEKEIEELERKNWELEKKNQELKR

4H949-bH = target: T5, 4H949-bH; assay: two-hybrid library CCNG1
T5 chain: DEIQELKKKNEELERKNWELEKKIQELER

4H3297-bH = target: T6, 4H3297-bH; assay: two-hybrid library CCNG1
T6 chain: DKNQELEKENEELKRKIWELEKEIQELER

4H730-bH = target: T7, 4H730-bH; assay: two-hybrid library CCNG1
T7 chain: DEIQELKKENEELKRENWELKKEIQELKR

4H796-bH = target: T8, 4H796-bH; assay: two-hybrid library CCNG1
T8 chain: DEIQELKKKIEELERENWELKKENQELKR

4H3381-bH = target: T9, 4H3381-bH; assay: two-hybrid library CCNG1
T9 chain: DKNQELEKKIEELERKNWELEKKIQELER

4H3364-bH = target: T10, 4H3364-bH; assay: two-hybrid library CCNG1
T10 chain: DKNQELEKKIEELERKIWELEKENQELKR

4H3666-AA = target: T11, 4H3666-AA; assay: two-hybrid library CCmax; conditions: mean of both orientations
T11 chain: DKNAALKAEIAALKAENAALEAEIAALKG

4H656-AA = target: T12, 4H656-AA; assay: two-hybrid library CCmax; conditions: mean of both orientations
T12 chain: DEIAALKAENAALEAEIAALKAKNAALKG

4H497-AA = target: T13, 4H497-AA; assay: two-hybrid library CCmax; conditions: mean of both orientations
T13 chain: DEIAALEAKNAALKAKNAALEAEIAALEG

4H3591-AA = target: T14, 4H3591-AA; assay: two-hybrid library CCmax; conditions: mean of both orientations
T14 chain: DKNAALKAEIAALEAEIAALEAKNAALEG

4H2742-AA = target: T15, 4H2742-AA; assay: two-hybrid library CCmax; conditions: mean of both orientations
T15 chain: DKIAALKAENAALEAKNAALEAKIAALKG

4H2283-AA = target: T16, 4H2283-AA; assay: two-hybrid library CCmax
T16 chain: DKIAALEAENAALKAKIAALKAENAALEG

4H3920-AA = target: T17, 4H3920-AA; assay: two-hybrid library CCmax; conditions: mean of both orientations
T17 chain: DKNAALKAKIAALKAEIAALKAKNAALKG

4H675-AA = target: T18, 4H675-AA; assay: two-hybrid library CCmax; conditions: mean of both orientations
T18 chain: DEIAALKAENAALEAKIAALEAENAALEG

4H3709-AA = target: T19, 4H3709-AA; assay: two-hybrid library CCmax; conditions: mean of both orientations
T19 chain: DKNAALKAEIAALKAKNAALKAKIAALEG

4H3121-AA = target: T20, 4H3121-AA; assay: two-hybrid library CCmax; conditions: mean of both orientations
T20 chain: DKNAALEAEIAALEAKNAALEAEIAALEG

4H2713-AA = target: T21, 4H2713-AA; assay: two-hybrid library CCmax; conditions: mean of both orientations
T21 chain: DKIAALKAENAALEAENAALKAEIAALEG

4H971-AA = target: T22, 4H971-AA; assay: two-hybrid library CCmax; conditions: mean of both orientations
T22 chain: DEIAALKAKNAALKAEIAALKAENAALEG

4H2948-AA = target: T23, 4H2948-AA; assay: two-hybrid library CCmax; conditions: mean of both orientations
T23 chain: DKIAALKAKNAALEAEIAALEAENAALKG

4H3628-AA = target: T24, 4H3628-AA; assay: two-hybrid library CCmax; conditions: mean of both orientations
T24 chain: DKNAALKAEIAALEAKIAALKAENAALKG

4H3939-AA = target: T25, 4H3939-AA; assay: two-hybrid library CCmax; conditions: mean of both orientations
T25 chain: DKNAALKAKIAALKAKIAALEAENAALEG

4H478-AA = target: T26, 4H478-AA; assay: two-hybrid library CCmax; conditions: mean of both orientations
T26 chain: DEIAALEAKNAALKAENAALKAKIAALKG

4H3029-AA = target: T27, 4H3029-AA; assay: two-hybrid library CCmax; conditions: mean of both orientations
T27 chain: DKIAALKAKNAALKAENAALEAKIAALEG

4H391-AA = target: T28, 4H391-AA; assay: two-hybrid library CCmax; conditions: mean of both orientations
T28 chain: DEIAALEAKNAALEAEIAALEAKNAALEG

4H2991-AA = target: T29, 4H2991-AA; assay: two-hybrid library CCmax; conditions: mean of both orientations
T29 chain: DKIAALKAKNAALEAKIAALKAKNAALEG

4H428-AA = target: T30, 4H428-AA; assay: two-hybrid library CCmax; conditions: mean of both orientations
T30 chain: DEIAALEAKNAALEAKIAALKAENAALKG

4H3446-AA = target: T31, 4H3446-AA; assay: two-hybrid library CCmax; conditions: mean of both orientations
T31 chain: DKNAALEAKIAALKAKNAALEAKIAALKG

4H3417-AA = target: T32, 4H3417-AA; assay: two-hybrid library CCmax; conditions: mean of both orientations
T32 chain: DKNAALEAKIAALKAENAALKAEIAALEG

4H3066-AA = target: T33, 4H3066-AA; assay: two-hybrid library CCmax; conditions: mean of both orientations
T33 chain: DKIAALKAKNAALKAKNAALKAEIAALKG

4H3102-AA = target: T34, 4H3102-AA; assay: two-hybrid library CCmax; conditions: mean of both orientations
T34 chain: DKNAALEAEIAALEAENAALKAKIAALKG

4H967-bN = target: T35, 4H967-bN; assay: two-hybrid library CCNG1
T35 chain: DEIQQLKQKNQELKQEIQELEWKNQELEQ

4H607-bN = target: T36, 4H607-bN; assay: two-hybrid library CCNG1
T36 chain: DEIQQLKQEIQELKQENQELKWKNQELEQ

4H953-bN = target: T37, 4H953-bN; assay: two-hybrid library CCNG1
T37 chain: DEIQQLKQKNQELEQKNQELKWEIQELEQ

4H883-bN = target: T38, 4H883-bN; assay: two-hybrid library CCNG1
T38 chain: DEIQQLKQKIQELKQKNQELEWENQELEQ

P8SHb = target: T39, P8SHb; assay: two-hybrid library CCNG1
T39 chain: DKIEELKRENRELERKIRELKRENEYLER

4H754-bN = target: T40, 4H754-bN; assay: two-hybrid library CCNG1
T40 chain: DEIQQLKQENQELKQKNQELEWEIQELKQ

4H918-bN = target: T41, 4H918-bN; assay: two-hybrid library CCNG1
T41 chain: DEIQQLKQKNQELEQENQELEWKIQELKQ

4H797-bN = target: T42, 4H797-bN; assay: two-hybrid library CCNG1
T42 chain: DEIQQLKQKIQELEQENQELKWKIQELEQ

4H687-bN = target: T43, 4H687-bN; assay: two-hybrid library CCNG1
T43 chain: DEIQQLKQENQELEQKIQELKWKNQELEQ

4H72-bN = target: T44, 4H72-bN; assay: two-hybrid library CCNG1
T44 chain: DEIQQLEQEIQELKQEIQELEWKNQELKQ

4H908-bN = target: T45, 4H908-bN; assay: two-hybrid library CCNG1
T45 chain: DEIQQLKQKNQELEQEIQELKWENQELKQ

4H717-bN = target: T46, 4H717-bN; assay: two-hybrid library CCNG1
T46 chain: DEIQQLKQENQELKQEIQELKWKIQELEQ

O6 = target: T47, O6; assay: two-hybrid library CC0; conditions: mean of both orientations
T47 chain: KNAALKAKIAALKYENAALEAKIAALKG

O9 = target: T48, O9; assay: two-hybrid library CC0; conditions: mean of both orientations
T48 chain: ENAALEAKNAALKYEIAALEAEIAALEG

O7 = target: T49, O7; assay: two-hybrid library CC0; conditions: mean of both orientations
T49 chain: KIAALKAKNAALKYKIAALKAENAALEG

O8 = target: T50, O8; assay: two-hybrid library CC0; conditions: mean of both orientations
T50 chain: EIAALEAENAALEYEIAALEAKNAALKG

interaction score (4H349-bH): -0.83
interaction score (4H3041-bH): -0.279
interaction score (4H2931-bH): -0.492
interaction score (4H56-bH): -0.623
interaction score (4H949-bH): -0.384
interaction score (4H3297-bH): 0.571
interaction score (4H730-bH): -0.532
interaction score (4H796-bH): -0.865
interaction score (4H3381-bH): -0.508
interaction score (4H3364-bH): -0.507
B1: 4H2931-bH (peptide)
chain: DKIQELKKKIEELKRKNWELEKENQELER

interaction score (4H3666-AA): -0.868
interaction score (4H656-AA): 1.84
interaction score (4H497-AA): -1.45
interaction score (4H3591-AA): -1.46
interaction score (4H2742-AA): -1.21
interaction score (4H2283-AA): 1.25
interaction score (4H3920-AA): -1.54
interaction score (4H675-AA): -0.967
interaction score (4H3709-AA): -1.11
interaction score (4H3121-AA): -0.934
interaction score (4H2713-AA): -1.19
interaction score (4H971-AA): -0.878
interaction score (4H2948-AA): 0.785
interaction score (4H3628-AA): -1.32
interaction score (4H3939-AA): -1.94
interaction score (4H478-AA): -1.52
interaction score (4H3029-AA): -1.74
interaction score (4H391-AA): -0.595
interaction score (4H2991-AA): -1.95
interaction score (4H428-AA): -0.691
interaction score (4H3446-AA): -1.15
interaction score (4H3417-AA): 1.63
interaction score (4H3066-AA): -1.63
interaction score (4H3102-AA): 0.17
B2: 4H2283-AA (peptide)
chain: DKIAALEAENAALKAKIAALKAENAALEG

interaction score (4H967-bN): -0.227
interaction score (4H607-bN): 0.145
interaction score (4H953-bN): -1.56
interaction score (4H883-bN): -0.644
interaction score (P8SHb): -1.61
interaction score (4H754-bN): -1.32
interaction score (4H918-bN): 0.0461
interaction score (4H797-bN): -0.52
interaction score (4H687-bN): -1.48
interaction score (4H72-bN): -1.65
interaction score (4H908-bN): -0.294
interaction score (4H717-bN): -1.11
B3: 4H607-bN (peptide)
chain: DEIQQLKQEIQELKQENQELKWKNQELEQ

B4: O6 (peptide)
chain: KNAALKAKIAALKYENAALEAKIAALKG
interaction score (O6): -2.7
interaction score (O9): -2.41
interaction score (O7): -2.72
interaction score (O8): -1.78

— paper PMC10397247
